Measured values reported in patent US6767890 (COASTSIDE BIO RESOURCES, dated 2004).
No end group written: not given here.

What was measured:
[1] = target: Galanin receptor of rat ileum (rat); experiment: cell-based or functional assay
[2] = target: Collagenase IV from human U937 cells (human, UniProt P14780 107-707); experiment: cell-based or functional assay
[3] = target: Phospholipase A2 from porcine pancreas (porcine, UniProt P00592 23-146); experiment: cell-based or functional assay
[4] = target: Protein kinase C - γ, rabbit brain (recombinant) (rabbit, UniProt P10829 1-697, limits assumed); experiment: cell-based or functional assay
[5] = target: Protein kinase C, non-selective, from rat brain (rat); experiment: cell-based or functional assay
[6] = target: Ca++/calmodulin dependent protein kinase II from rat brain (rat); experiment: cell-based or functional assay
[7] = target: T1, Cyclooxygenase-1 from ram seminal vesicle (ram (sheep), UniProt P05979 25-600); experiment: cell-based or functional assay
T1 sequence (looked up): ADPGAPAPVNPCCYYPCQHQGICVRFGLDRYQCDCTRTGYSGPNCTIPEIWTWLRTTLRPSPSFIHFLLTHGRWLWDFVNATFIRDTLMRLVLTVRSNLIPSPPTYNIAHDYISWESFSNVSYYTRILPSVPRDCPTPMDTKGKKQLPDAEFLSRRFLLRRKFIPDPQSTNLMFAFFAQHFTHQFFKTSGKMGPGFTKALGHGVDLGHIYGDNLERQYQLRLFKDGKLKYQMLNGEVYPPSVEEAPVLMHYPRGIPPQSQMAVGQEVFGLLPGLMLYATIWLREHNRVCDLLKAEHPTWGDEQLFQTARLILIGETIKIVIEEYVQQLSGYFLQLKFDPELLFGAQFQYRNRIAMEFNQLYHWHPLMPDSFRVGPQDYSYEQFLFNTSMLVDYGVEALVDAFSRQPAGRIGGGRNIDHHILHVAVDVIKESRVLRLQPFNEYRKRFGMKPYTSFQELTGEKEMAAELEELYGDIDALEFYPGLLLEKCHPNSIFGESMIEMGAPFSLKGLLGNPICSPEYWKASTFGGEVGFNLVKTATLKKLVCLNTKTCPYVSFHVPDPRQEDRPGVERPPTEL

[8] = target: T2, Cyclooxygenase-2 from sheep placenta (sheep, UniProt P79208 17-603); experiment: cell-based or functional assay
T2 sequence (looked up): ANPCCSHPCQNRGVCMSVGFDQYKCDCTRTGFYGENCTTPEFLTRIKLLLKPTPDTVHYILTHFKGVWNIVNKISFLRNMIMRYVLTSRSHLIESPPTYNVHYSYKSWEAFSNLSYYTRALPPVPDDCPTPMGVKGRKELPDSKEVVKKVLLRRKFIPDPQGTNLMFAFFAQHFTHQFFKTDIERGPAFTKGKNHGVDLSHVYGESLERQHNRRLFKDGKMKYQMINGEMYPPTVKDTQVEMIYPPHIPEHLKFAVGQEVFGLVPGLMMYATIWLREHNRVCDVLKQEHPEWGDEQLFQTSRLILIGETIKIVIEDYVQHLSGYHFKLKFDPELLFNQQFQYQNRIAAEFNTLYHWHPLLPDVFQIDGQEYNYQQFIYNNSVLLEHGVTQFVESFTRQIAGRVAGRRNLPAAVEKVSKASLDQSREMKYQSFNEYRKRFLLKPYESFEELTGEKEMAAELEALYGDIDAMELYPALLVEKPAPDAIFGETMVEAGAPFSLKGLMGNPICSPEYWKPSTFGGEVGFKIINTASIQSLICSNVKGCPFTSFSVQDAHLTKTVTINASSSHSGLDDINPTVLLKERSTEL

[9] = target: T3, Interleukin-1α receptor on mouse Swiss/3T3 cells (mouse, UniProt P13504 20-576); experiment: historical value of the assay laboratory, saturation analysis of [125I]IL-1 alpha on mouse Swiss/3T3 cells
T3 construct: whole, on cells; also called Interleukin-1α (assay target)
T3 sequence (looked up): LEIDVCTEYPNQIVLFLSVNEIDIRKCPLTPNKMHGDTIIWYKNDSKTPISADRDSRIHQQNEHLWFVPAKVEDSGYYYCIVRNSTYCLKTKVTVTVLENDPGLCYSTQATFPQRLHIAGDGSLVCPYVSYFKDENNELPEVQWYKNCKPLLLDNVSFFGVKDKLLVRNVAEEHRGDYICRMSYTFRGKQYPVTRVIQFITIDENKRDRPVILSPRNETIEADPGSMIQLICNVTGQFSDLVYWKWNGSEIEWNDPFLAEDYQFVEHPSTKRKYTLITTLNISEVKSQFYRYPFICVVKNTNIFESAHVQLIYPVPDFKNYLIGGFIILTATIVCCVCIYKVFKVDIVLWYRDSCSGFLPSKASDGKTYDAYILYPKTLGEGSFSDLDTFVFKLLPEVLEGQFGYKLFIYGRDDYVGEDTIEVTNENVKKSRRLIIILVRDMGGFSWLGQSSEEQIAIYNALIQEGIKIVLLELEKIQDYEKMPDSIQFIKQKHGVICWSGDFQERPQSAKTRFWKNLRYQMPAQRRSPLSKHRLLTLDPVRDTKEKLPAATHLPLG

Sequence of Collagenase IV from human U937 cells (P14780 107-707): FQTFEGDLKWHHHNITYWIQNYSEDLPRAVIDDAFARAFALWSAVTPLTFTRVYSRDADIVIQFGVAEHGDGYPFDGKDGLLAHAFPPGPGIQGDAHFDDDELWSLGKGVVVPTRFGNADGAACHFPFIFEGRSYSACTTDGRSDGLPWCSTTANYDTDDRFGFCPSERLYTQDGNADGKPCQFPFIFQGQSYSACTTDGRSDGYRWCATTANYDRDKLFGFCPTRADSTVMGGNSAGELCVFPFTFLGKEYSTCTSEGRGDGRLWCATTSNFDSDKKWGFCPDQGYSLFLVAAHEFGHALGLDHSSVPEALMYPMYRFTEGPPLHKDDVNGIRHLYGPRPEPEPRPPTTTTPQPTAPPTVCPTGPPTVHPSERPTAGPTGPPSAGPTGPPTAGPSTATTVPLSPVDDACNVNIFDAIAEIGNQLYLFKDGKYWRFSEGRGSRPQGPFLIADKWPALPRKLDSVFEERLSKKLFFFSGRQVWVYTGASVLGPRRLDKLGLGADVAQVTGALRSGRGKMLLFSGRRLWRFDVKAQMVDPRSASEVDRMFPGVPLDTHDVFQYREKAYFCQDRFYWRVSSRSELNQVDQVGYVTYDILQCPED
Sequence of Phospholipase A2 from porcine pancreas (P00592 23-146): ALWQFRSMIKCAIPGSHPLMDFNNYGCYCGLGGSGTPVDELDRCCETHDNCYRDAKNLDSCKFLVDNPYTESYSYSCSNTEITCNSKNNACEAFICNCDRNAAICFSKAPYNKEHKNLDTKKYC

B1: pentapeptide Leu-Pro-Pro-Ser-Arg isolated from the epithelial layer of the sea cucumber Cucumaria frondosa (peptide of Example 1) (peptide)
peptide: LPPSR
modifications: also: at least one D-amino acid, position not given here
Agonism (contraction of rat ileum relative to 0.1 µM galanin), peptide 30 µM [1]: 0%
% Inhibition of enzyme activity, peptide 100.0 µM [2]: 2%
% Inhibition of enzyme activity, peptide 300.0 µM [3]: -11%
% Inhibition of enzyme activity, peptide 100.0 µM [4]: -6%
% Inhibition of enzyme activity, peptide 300.0 µM [5]: -6%
% Inhibition of enzyme activity, peptide 100.0 µM [6]: 12%
% Inhibition of enzyme activity, peptide 300.0 µM [7]: 2%
% Inhibition of enzyme activity, peptide 300.0 µM [8]: 2%

B2: Interleukin-1α (ligand, UniProt P01583 113-271, looked up)
chain: SAPFSFLSNVKYNFMRIIKYEFILNDALNQSIIRANDQYLTAAALHNLDEAVKFDMGAYKSSKDDAKITVILRISKTQLYVTAQDEDQPVLLKEMPEIPKTITGSETNLLFFWETHGTKNYFTSVAHPNLFIATKQDYWVCLAGGPPSITDFQILENQA
modifications: 125I label on the radioligand
notes: also called IL-1 alpha; [125I]IL-1 alpha
Kd [9]: 0.18 nM
